Measured values: paper PMC3036719
Like-named read-outs stand apart in the source and are kept apart here.

Assays:
human fibrinogen (human) [1] = biological target: human fibrinogen (human) (UniProt P02671)
human fibrinogen (human) [2] = biological target: human fibrinogen (human) (UniProt P02671); test: ELISA; host protein (1 µg per well) immobilised in microtiter wells, blocked with 20 mg/mL BSA; recombinant LigB in 20 mg/mL BSA in PBS pH 7.2, 1 h at 37°C; bound LigB detected by its polyhistidine tag; apparent Kd from the LigB concentration at half-maximal binding
[3] = biological target: human fibronectin from plasma (human); test: as above
[4] = biological target: human fibronectin from fibroblasts (human); test: as above
[5] = biological target: human fibronectin from plasma (human); test: as above; remark: listed apart in the source
[6] = biological target: human type III collagen (human) (UniProt P02461); test: as above
human type III collagen (human), sequence (P02461 154-1221): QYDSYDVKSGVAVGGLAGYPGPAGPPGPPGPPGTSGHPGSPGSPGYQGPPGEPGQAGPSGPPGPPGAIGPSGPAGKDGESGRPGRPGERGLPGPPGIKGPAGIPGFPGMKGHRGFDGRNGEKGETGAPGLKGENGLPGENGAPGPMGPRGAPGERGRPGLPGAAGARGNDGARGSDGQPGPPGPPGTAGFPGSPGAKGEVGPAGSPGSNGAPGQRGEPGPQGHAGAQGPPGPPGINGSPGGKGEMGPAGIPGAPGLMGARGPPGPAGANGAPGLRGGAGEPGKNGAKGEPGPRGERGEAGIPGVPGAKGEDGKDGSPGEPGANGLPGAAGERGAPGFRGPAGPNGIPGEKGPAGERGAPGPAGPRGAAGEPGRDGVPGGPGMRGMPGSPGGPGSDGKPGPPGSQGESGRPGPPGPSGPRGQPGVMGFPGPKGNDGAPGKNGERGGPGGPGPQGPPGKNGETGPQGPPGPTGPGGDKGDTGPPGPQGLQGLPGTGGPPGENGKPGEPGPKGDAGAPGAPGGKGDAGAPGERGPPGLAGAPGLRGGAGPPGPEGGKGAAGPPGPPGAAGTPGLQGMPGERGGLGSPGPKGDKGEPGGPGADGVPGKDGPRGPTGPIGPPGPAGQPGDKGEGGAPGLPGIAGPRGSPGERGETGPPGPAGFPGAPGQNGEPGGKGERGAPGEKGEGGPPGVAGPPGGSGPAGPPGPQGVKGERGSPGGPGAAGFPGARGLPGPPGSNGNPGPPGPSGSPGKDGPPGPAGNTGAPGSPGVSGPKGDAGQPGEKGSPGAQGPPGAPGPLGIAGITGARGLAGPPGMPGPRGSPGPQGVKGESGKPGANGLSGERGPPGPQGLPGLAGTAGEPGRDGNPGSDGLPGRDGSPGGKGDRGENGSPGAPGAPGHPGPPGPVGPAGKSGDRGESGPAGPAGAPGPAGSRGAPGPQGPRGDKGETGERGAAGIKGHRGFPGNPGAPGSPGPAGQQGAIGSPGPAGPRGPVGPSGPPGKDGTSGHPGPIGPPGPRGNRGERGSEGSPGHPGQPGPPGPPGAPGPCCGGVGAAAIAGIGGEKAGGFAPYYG

human fibrinogen (human) [7] = biological target: human fibrinogen (human) (UniProt P02671); test: as above; remark: listed apart in the source
human fibrinogen (human) [8] = biological target: human fibrinogen (human) (UniProt P02671); test: ELISA; data not shown; LigB proteins on immobilised fibronectin, its 70-kDa N-terminal fragment or fibrinogen
[9] = biological target: human fibronectin from plasma (human); test: as above
[10] = biological target: fibrinogen fragment D (human); test: bacterial cell adhesion ELISA; wells coated with 1 µg human fibrinogen or fragment D, blocked with 20 mg/mL BSA; 3×10^8 leptospires, 1 h at 30°C; adherent cells fixed with formaldehyde and detected with a rabbit antibody to L. biflexa; increase over wild-type L. biflexa
fibrinogen fragment D (human), sequence (P02671 130-216, chain 1 of 3): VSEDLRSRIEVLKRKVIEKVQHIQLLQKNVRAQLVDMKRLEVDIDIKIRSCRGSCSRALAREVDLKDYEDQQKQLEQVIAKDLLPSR
fibrinogen fragment D (human), sequence (P02675 164-491, chain 2 of 3, further chain): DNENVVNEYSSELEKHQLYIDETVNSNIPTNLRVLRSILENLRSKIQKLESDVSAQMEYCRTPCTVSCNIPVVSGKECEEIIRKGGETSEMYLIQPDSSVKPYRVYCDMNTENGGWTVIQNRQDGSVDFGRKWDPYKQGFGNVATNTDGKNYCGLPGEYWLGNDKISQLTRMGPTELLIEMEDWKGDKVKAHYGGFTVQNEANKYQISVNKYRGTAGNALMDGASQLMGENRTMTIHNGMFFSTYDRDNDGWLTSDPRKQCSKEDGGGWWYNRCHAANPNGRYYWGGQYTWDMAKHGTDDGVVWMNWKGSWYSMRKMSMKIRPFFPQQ
fibrinogen fragment D (human), sequence (P02679 114-432, chain 3 of 3, further chain): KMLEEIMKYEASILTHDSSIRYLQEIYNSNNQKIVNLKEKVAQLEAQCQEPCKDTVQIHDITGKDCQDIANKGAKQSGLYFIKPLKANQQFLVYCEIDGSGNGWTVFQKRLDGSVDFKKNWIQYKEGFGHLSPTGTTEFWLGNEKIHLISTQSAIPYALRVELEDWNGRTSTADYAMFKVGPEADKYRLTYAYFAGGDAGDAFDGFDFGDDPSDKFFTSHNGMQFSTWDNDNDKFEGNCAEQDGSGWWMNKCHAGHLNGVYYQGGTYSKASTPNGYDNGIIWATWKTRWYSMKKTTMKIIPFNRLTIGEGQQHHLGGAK

human fibrinogen (human) [11] = biological target: human fibrinogen (human) (UniProt P02671); test: as above

human fibrinogen (human), sequence (P02671 20-866, chain 1 of 3): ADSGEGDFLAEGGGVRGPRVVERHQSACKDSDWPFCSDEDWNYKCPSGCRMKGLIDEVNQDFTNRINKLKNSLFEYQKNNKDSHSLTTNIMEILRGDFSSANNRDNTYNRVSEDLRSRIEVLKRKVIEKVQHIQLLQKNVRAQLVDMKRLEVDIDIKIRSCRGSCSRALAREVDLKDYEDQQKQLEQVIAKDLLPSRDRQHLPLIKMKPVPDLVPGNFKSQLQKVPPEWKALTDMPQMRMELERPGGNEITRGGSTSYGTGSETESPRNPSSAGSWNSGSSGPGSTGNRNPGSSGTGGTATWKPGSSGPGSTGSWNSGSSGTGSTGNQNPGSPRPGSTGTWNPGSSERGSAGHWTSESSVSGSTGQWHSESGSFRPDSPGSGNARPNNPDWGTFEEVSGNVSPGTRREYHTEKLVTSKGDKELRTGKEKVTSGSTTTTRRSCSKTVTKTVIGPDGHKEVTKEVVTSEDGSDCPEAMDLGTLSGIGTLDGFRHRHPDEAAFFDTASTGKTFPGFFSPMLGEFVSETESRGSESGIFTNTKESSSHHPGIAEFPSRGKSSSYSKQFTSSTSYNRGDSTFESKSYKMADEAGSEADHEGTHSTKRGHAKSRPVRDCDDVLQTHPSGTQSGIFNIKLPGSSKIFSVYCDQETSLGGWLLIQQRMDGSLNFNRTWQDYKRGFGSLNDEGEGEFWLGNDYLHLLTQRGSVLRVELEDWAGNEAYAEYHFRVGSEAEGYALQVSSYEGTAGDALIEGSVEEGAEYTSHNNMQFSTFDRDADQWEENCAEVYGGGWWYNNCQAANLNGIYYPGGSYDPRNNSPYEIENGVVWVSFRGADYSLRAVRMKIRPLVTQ
human fibrinogen (human), sequence (P02675 31-491, chain 2 of 3, further chain): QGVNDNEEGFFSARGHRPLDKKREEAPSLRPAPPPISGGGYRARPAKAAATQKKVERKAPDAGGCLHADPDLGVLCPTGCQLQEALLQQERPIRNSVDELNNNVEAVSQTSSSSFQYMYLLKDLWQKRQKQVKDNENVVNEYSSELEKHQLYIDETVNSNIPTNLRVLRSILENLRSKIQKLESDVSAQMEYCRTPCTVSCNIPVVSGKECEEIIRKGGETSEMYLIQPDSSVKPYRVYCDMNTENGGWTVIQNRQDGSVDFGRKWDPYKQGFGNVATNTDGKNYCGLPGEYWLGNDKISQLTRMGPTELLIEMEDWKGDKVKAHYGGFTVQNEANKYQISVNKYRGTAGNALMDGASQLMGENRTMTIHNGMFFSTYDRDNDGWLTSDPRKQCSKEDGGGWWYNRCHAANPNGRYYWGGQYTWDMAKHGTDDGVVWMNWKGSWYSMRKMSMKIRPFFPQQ
human fibrinogen (human), sequence (P02679 27-453, chain 3 of 3, further chain): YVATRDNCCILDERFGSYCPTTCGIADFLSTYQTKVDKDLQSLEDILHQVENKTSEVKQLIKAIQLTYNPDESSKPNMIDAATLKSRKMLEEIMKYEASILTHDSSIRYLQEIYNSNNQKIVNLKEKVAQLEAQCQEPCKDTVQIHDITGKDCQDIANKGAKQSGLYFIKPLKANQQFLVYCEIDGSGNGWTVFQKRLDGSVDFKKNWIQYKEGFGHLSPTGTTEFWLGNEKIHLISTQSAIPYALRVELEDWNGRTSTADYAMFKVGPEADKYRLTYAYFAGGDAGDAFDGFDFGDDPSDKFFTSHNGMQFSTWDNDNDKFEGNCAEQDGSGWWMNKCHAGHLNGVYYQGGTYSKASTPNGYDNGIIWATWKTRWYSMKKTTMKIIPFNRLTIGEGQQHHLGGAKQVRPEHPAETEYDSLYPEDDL

Substance | Kd (human fibrinogen (human) [2]) [nM] | Kd [3] [nM] | also measured
LigB9-11 (domain or fragment) | 27 | 31 | decrease of thrombin-catalysed fibrin formation from purified fibrinogen (3 µM fibrinogen preincubated with 5 µM LigB9-11; three determinations, 22 to 43%) (human fibrinogen (human) [1]): 29%; Kd [4]: 25 nM; Kd [5]: 32 nM; Kd [6]: 30 nM; Kd (human fibrinogen (human) [7]): 28 nM
LigB7′-10 (domain or fragment) | 207 | 77 | 
LigB9-11′ (domain or fragment) |  |  | percent decrease of fibrinogen-binding activity relative to LigB9-11 (human fibrinogen (human) [8]): 50%; percent decrease of fibronectin-binding activity relative to LigB9-11 [9]: 80%
LigA from L. interrogans expressed on L. biflexa (ligA transformant) (natural protein) |  |  | percent increase of adhesion over wild-type L. biflexa [10]: 58%; percent increase of adhesion over wild-type L. biflexa (human fibrinogen (human) [11]): 55%; percent increase of adhesion over wild-type L. biflexa (representative experiment) (human fibrinogen (human) [11]): 56%
LigB8-12 (domain or fragment) |  | 26 | 
LigB9-12 (domain or fragment) | 37 | 22 | 
LigB7′-11 (domain or fragment) | 63 | 27 | 
LigB from L. interrogans expressed on L. biflexa (ligB transformant) (natural protein) |  |  | percent increase of adhesion over wild-type L. biflexa (human fibrinogen (human) [11]): 55%; percent increase of adhesion over wild-type L. biflexa (representative experiment) (human fibrinogen (human) [11]): 37%
LigB9-10 (domain or fragment) | 169 | 252 | 
LigB7′-12 (domain or fragment) | 34 | 23 | 
LigB9-11 with N-terminal H6 (cloned in pET-14b) (domain or fragment) |  |  | residual fibrinogen-binding activity relative to LigB9-11 (human fibrinogen (human) [8]): < 10%
